From article PMC11210774, “Critical domains for NACC2-NTRK2 fusion protein activation” (PLOS ONE, 2024) come the findings set out here.

Data set [1] addresses NACC2(D31N/R45Q)-NTRK2 (UniProt Q96BF6). Kind of data set: non-reducing SDS-PAGE and immunoblot of multimers; HEK293T lysates in E1A buffer (250 mM NaCl, 50 mM HEPES, 5 mM EDTA, 0.1% NP-40); non-reducing sample buffer (4% SDS, 10 mM NaPO4 pH 7.0); immunoblot for NACC2 or NTRK2; multimer/monomer band ratio by ImageJ, three replicates.
The target in data set [2] is NACC2(Y86A)-NTRK2 (UniProt Q96BF6). The description is as above.
Data set [3] concerns the target NACC2-NTRK2(ex4:ex13) fusion protein (UniProt Q96BF6). The data set is described as above.
The target of data set [4] is NACC2(D31N/R45Q)-NTRK2 (UniProt Q96BF6). Kind of data set: co-IP; fusion protein co-expressed with NACC2 in HEK293T; E1A buffer; immunoprecipitation with antibodies against NTRK2 and Protein A-Sepharose at 4°C, immunoblot for NACC2; ratio of NACC2 to the co-immunoprecipitated fusion by ImageJ.
Data set [5] has as its target NACC2(Y86A)-NTRK2 (UniProt Q96BF6). The data set is described as above.
The target in data set [6] is NACC2-NTRK2(ex4:ex13) fusion protein (UniProt Q96BF6). Described as above.
Data set [7] concerns the molecule itself. Kind of data set: non-reducing SDS-PAGE and immunoblot of multimers; HEK293T lysates in E1A buffer (250 mM NaCl, 50 mM HEPES, 5 mM EDTA, 0.1% NP-40); non-reducing sample buffer (4% SDS, 10 mM NaPO4 pH 7.0); immunoblot for NACC2 or NTRK2; multimer/monomer band ratio by ImageJ, three replicates. (A western blot detects proteins with antibodies after separation by electrophoresis.)

As for “NACC2(D31N/R45Q)-NTRK2 (from UniProt Q96BF6 1-418; Q16620 397-822)”, the ratio of the multimer band to the monomer band with NACC2(D31N/R45Q)-NTRK2 [1] amounted to 18%.

Consider “NACC2(Y86A)-NTRK2 (from UniProt Q96BF6 1-418; Q16620 397-822)”, for which the ratio of the multimer band to the monomer band with NACC2(Y86A)-NTRK2 [2] was 12%.

For “NACC2-NTRK2(ex4:ex13) fusion protein (from UniProt Q96BF6 1-418; Q16620 397-822)”, the ratio of the multimer band to the monomer band in data set [3] stood at 44%.

B1: Nucleus Accumbens-associated protein 2 (NACC2), wild type (natural protein, human, UniProt Q96BF6 1-587, looked up)
chain: MSQMLHIEIPNFGNTVLGCLNEQRLLGLYCDVSIVVKGQAFKAHRAVLAASSLYFRDLFSGNSKSAFELPGSVPPACFQQILSFCYTGRLTMTASEQLVVMYTAGFLQIQHIVERGTDLMFKVSSPHCDSQTAVIEDAGSEPQSPCNQLQPAAAAAAPYVVSPSVPIPLLTRVKHEAMELPPAGPGLAPKRPLETGPRDGVAVAAGAAVAAGTAPLKLPRVSYYGVPSLATLIPGIQQMPYPQGERTSPGASSLPTTDSPTSYHNEEDEEDDEAYDTMVEEQYGQMYIKASGSYAVQEKPEPVPLESRSCVLIRRDLVALPASLISQIGYRCHPKLYSEGDPGEKLELVAGSGVYITRGQLMNCHLCAGVKHKVLLRRLLATFFDRNTLANSCGTGIRSSTSDPSRKPLDSRVLNAVKLYCQNFAPSFKESEMNVIAADMCTNARRVRKRWLPKIKSMLPEGVEMYRTVMGSAAASVPLDPEFPPAAAQVFEQRIYAERRGDAATIVALRTDAVNVDLSAAANPAFDAGEEVDGAGSVIQEVAAPEPLPADGQSPPQPFEQGGGGPSRPQTPAAAARRPEGTYAGTL
notes: NACC2, human, wild type; gene bought from Origene and subcloned into pCDNA3 by EcoRI and XbaI; Expressed alone (multimerization assay) or together with the fusion proteins (co-IP); also called wild-type NACC2; native NACC2; source: HEK293T, transfected (pCDNA3, CaCl2), in lysate (E1A buffer)
Take B1: the ratio of NACC2 to the NACC2-NTRK2 fusion with which it was co-immunoprecipitated came to 45% with NACC2(D31N/R45Q)-NTRK2 [4], 15% in the data set with NACC2(Y86A)-NTRK2 [5] and 72% in data set [6]. Moreover, in data set [7], the “ratio of the multimer band to the monomer band” value was 7%.
